Assay results as given in article PMC10028609.
One block for each substance: values may come before it.

Key:
[1] = target: His6-MBP-OspR fusion (Kamptonema sp. (formerly Oscillatoria) PCC 6506)
[2] = target: His6-MBP-OspR fusion (Kamptonema sp. (formerly Oscillatoria) PCC 6506); remark: listed apart in the source
[3] = target: OspR, untagged (peptide arginase from Kamptonema sp. PCC 6506) (Kamptonema sp. (formerly Oscillatoria) PCC 6506); experiment: SEC; analytical size exclusion chromatography of OspR in solution (Figure S18); conditions in the SI

- KM of OspR toward unmodified OspA, Michaelis–Menten kinetics by urea detection assay (50 mM TRIS-HCl pH 8.5, 1 mM MnCl2, 25 °C) [1]: 9.01 μM
Substance: His6-OspA precursor protein, unmodified (natural protein)

- KM of OspR toward cyclized-and-epimerized OspA^MD, Michaelis–Menten kinetics by urea detection assay (50 mM TRIS-HCl pH 8.5, 1 mM MnCl2, 25 °C) [2]: 6.33 μM
Substance: His6-OspA^MD, fully cyclized-and-epimerized OspA precursor protein (natural protein)

- stoichiometry N [3]: 2
Substance: OspR, untagged (peptide arginase from Kamptonema sp. PCC 6506) (enzyme)
